Results as given in patent publication CN110964111A (BEIJING DONGFANG BIOTECH CO LTD, dated 2020).
Substitutions are numbered along the chain they refer to.

B1: BH2-B11 全抗体 (full antibody, human IgG1/kappa) (antibody, V domains shown)
VH: EVQLVESGGGLVQPGGSLRLSCAASGLTWSDSYKHWVRQAPGKGLEWVHWNSTYGGSTYYADSVKGRFTISADTSKNTAYLQMNSLRAEDTAVYYCARRHFASTWDYWGQGTLVTVSS
VL: DIQMTQSPSSLSASVGDRVTITCRASQNIHNSLAWYQQKPGKAPKLLIYGASSLESGVPSRFSGSGSGTDFTLTISSLQPEDFATYYCQQERRVPWTFGQGTKVEIKR
B2: AC9-E3 全抗体 (full antibody, human IgG1/kappa) (antibody, V domains shown)
VH: B1 VH with L27C, Y33W, K34D, H49D, W50Y, N51E, F101W, A102N, S103A, W105F
VL: B1 VL with N28S, S32Y, G50S, S53N, E55P, E91G, R92L, R93H, V94T, W96P
B3: AH10-E3 全抗体 (full antibody, human IgG1/kappa) (antibody, V domains shown)
VH: EVQLVESGGGLVQPGGSLRLSCAASGWTLSDSLQHWVRQAPGKGLEWVGFQSAYGGSTYYADSVKGRFTISADTSKNTAYLQMNSLRAEDTAVYYCARRHYYTAWDYWGQGTLVTVSS
VL: B1 VL with N28S, S32Y, G50S, S53N, E55P, E91G, R92L, R93H, V94T, W96P
B4: AH10-B11 全抗体 (full antibody, human IgG1/kappa) (antibody, V domains shown)
VH: B3 VH
VL: B1 VL
B5: AC9-B11 全抗体 (full antibody, human IgG1/kappa) (antibody, V domains shown)
VH: B1 VH with L27C, Y33W, K34D, H49D, W50Y, N51E, F101W, A102N, S103A, W105F
VL: B1 VL
B6: BH2-E3 全抗体 (full antibody, human IgG1/kappa) (antibody, V domains shown)
VH: B1 VH
VL: B1 VL with N28S, S32Y, G50S, S53N, E55P, E91G, R92L, R93H, V94T, W96P

The binders below were run against PD-L1 (UniProt Q9NZQ7 19-238, limits assumed) (assay: cell-based or functional assay).
PD-L1, sequence (Q9NZQ7 19-238 limits assumed): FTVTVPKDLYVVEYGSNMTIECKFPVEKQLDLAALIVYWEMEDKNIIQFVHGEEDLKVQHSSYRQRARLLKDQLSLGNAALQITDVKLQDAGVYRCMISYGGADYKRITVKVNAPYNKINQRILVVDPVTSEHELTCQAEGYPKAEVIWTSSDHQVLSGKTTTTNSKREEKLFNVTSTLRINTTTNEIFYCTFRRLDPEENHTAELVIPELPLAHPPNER

| EC50, CD4+ T细胞增殖 (混合淋巴细胞反应 MLR, cck8) [ng/mL] | Binder |
| --- | --- |
| 6.73 | B1 |
| 11.9 | B2 |
| 11.4 | B3 |
| 9.88 | B4 |
| 7.58 | B5 |
| 7.71 | B6 |
